This is an account of results in article PMC6486709.

Substrate in this data set: C/C(=C\Cc1c(O)c(Cl)c(C)c(C=O)c1O)CC/C=C(\C)[C@@H](O)C[C@@H]1OC1(C)C
Nature of the data set: cells, lysate or membranes. Conditions: microsomal fraction of ascI-expressing yeast.

B1: AscI (Acremonium egyptiacum) (protein)
chain: MPQLAGKLILAGLIPLGAWVLHGFASCNGLIQMFEDFGKQTVLSDGVTDYTGAFTGLEGLDRLLRTLLNFFWPVANGHDWALSLHAFMFAGQGVPLLVLNMLEGARPGNKSLVVSYVTVFGILYMVVGLAIMAPLYLFLHLLTSRTATAPSKAKVAVDPNTAKAVGFGVFVGYVLPTIFMSLPHPSLLSTDTKVLSVVFWQAVPLWASVCAYFASTALGQSATSRSSSNLPSALGAVYAASLIIATATHVATFAISANLSDTWSGIFTFLIPPNPFNTDMRISSFLEGATWFLQWDYTMMSLAYMVWAIGIRHGVEVPRSSHHFETLGKIALRSMAKLLVMGPIGAALSLVWERDQLLWQLDSESGEKGEKNRSRRMSRKWMFS
For orientation: Km means the substrate concentration at which the rate is half of its maximum. For the protein B1, the Km came out at 50.4 ± 11.1 µM.
